Data on two substances can be found in PMC12151148.

The target in assay [1] is LGN-GL1234 (483–650) (mouse). Kind of assay: ITC; 25°C; 50 mM Tris (pH 8.0), 100 mM NaCl, 1 mM EDTA; one protein (0.2 mM) injected into another (0.02 mM); one-site binding model.
Assay [2] deals with FL-AGS3 (mouse). Described as above.
The target in assay [3] is FL-LGN (mouse). Described as above.
Assay [4] concerns the target AGS3-TPR (1–405) (mouse). Kind of assay: ITC; 25°C; 50 mM Tris (pH 8.0), NaCl raised to 300 mM for AGS3-TPR or AGS3-L, 1 mM EDTA; one protein (0.2 mM) injected into another (0.02 mM); one-site binding model. Background: In ITC the heat of successive injections is recorded.

Gαi3⋅GDP, sequence (P08754 whole entry): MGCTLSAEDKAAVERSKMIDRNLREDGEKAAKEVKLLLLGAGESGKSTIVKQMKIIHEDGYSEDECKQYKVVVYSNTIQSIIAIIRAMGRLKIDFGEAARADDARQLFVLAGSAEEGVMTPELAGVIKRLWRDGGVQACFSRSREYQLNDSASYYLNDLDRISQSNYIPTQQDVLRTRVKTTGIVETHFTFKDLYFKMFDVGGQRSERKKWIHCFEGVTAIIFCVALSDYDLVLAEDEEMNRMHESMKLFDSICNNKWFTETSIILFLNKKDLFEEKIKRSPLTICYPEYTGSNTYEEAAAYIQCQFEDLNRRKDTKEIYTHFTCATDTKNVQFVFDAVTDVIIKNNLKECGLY

In assay [1], “Gαi3⋅GDP (from UniProt P08754 1-354) (natural protein)” returned a stoichiometry N (Gαi3⋅GDP per GoLoco domain) of 4. In addition, the Kd was found to be 1600 nM in assay [2] and 1170 nM in assay [3].

“AGS3-GL1234 (470–631) (domain or fragment)” returned a dissociation constant (Kd) in assay [4] of 170 nM.

The Kd is the concentration at which binding is half-saturated. A lower Kd goes with tighter binding.
